Results reported in publication PMC3324464, “The GPI Anchor Signal Sequence Dictates the Folding and Functionality of the Als5 Adhesin from Candida albicans” (PLoS ONE, 2012).
Entries after “also recorded” stand apart in the source; their conditions may differ.

How the values were obtained:
[1] = test system: human collagen type IV; assay: Adhesion assay to immobilised collagen type IV; format: binding; details: 0.09 mg/ml protein, 37°C 1 hour, anti-GST/HRP, TMB OD650nm; mean of 3 independent experiments in duplicates
Experimental: Freshly purified GST-Als5 and GST-Als5-SS were checked for their ability to bind to human collagen type IV, following a slightly modified method to that reported. Briefly, a 96-well flat bottom plate was coated with different amounts of collagen type IV and incubated overnight at 4°C. The plate was then washed thrice with PBS and twice with elution buffer. […] The wells were blocked for 1 hour with 5% skimmed milk in PBS and then washed 5 times with wash buffer (1% skimmed milk, 0.025% Tween-20 in PBS). Thereafter, 200 µl/well of primary anti-GST antibody (diluted 1∶1,000) was added. After incubation at 37°C for 1 hour, the wells were washed five times with wash buffer and incubated at 37°C with HRP-conjugated secondary antibody (200 µl/well; diluted 1∶20,000) for 1 hour. The wells were rinsed five times with wash buffer, 100 µl of freshly prepared tetramethylbenzidine solution was added to each well and incubated at 37°C for 1 hour. OD650nm was monitored on a plate reader (Spectramax M2). […]
Figure 3 Adhesion of Als5 to collagen type IV involves recognition of carbohydrate residues on collagen type IV but is not solely determined by it. […] Adhesion of the proteins to collagen type IV was correlated to the absorbance at 650 nm observed by the oxidation of TMB, the substrate of HRP. […] Adherence to collagen type IV was detected as already described. […]

[2] = Aggregation/precipitation on concentrating the protein; format: physicochemical; details: attempts to concentrate protein above ∼0.09 mg/ml
Source text: However, we observed bands of Mr ∼270 kDa, for both GST-Als5 and GST-Als5-SS (Figure 1B). This marked difference between the observed molecular weights in SDS-PAGE and the expected molecular weights has been previously attributed to the high content of hydroxyl amino acids in proteins; both Als5 and Als5-SS are rich in serine and threonine residues.
It must be pointed out that a PreScission^TM protease site exists between the fusion tag and the Als5 proteins in the two constructs. However, our attempts to cleave off the fusion tag with the protease met with poor success. The PreScission^TM protease is also available as a GST-tagged enzyme and it is possible that steric factors precluded the interaction of the protease with the cleavage site in our fusion protein. Additionally, our protein yields to begin with were very low (∼0.09 mg/ml) and this too could have affected the efficiency of the cleavage. […] We used similarly expressed and purified GST as the control for all our experiments. Similar studies with GST-tagged proteins, including conformational studies, have been reported by other groups previously (cf.).

[3] = test system: collagen type IV treated with N-Glycosidase F; assay: Adhesion to N-glycosidase F treated collagen type IV; format: binding, human; details: 0.5 U N-glycosidase F, 3 hours; data not shown
Experimental: Figure 3 Adhesion of Als5 to collagen type IV involves recognition of carbohydrate residues on collagen type IV but is not solely determined by it. (A) Adhesion of GST-Als5, GST-Als5-SS to collagen type IV. Different amounts of collagen type IV, as shown in the figure, were immobilized in 96-well flat bottomed ELISA plates and incubated with the proteins (0.09 mg/ml) of interest at 37 °C for 1 hour. The adhesion assay was carried out as described in Experimental Procedures. Adhesion of the proteins to collagen type IV was correlated to the absorbance at 650 nm observed by the oxidation of TMB, the substrate of HRP. […] Buffer controls (OD 650nm of 0.126 ± 0.003), corresponding to no immobilized collagen, have been subtracted in all cases. […] The data presented is mean of 3 independent experiments done in duplicates. […] (B) Treatment of collagen type IV with N-Glycosidase F results in decrease in adherence of GST-Als5. […] Adherence to collagen type IV was detected as already described. […]
Supplementary file pone.0035305.s005.tif: Figure S5 Treatment of collagen type IV with N-Glycosidase F results in decrease in adherence of GST-Als5. […] GST-Als5 was incubated before the adherence was detected by using primary anti-GST antibody and anti-rabbit HRP-conjugated secondary antibody and is represented in this figure by the Absorbance at 650nm observed upon oxidation of the specific substrate of HRP. […]

B1: GST-Als5: GST fusion of full length Als5 minus the GPI anchor attachment signal sequence, expressed in E. coli (protein)
chain: ITGIFNSIDSLTWSNAGNYAFKGPGYPTWNAVLGWSLDGTSANPGDTFILNMPCVFKFTASQKSVDLTADGVKYATCQFYSGEEFTTFSSLKCTVNNNLRSSIKALGTVTLPIAFNVGGTGSSVDLEDSKCFTAGTNTVTFNDGSKKLSIAVNFEKSTVDQSGYLTTSRFMPSLNKIATLYVAPQCENGYTSGTMGFSTSYGDVAIDCSNVHIGISKGVNDWNHPVTSESFSYTKSCSSFGISITYQNVPAGYRPFIDAYISPSDNNQYQLSYKNDYTCVDDYWQHAPFTLKWTGYKNSDAGSNGIVIVATTRTVTDSTTAVTTLPFNPSVDKTKTIEILQPIPTTTITTSYVGVTTSYSTKTAPIGETATVIVDVPYHTTTTVTSEWTGTITTTTTRTNPTDSIDTVVVQVPLPNPTTTTTQFWSESFTSTTTITNSLKGTDSVIVREPHNPTVTTTEFWSESYATTETITNGPEGTDSVIVREPHNPTVTTTEFWSESYATTETVTNKPEGTDSVIIKEPHNPTVTTTEFWSESYATTETITTGPLGTDSIVIHDPLEESSSTTAIESSDSNISSSAQESSSSVEQSSSIVGLSSSSDIPLSSDMPSSSSTGLTSSESSTVSSYDSDSSSSSELSTFSSSESYSSSISDTTNFWDSSSSDLESTSITWSSSIDAQSSQSVQSVSNSISTSQETTSSSGEESNTSVTDILVSSDASSILNSDISSYYPSSTISLSDDFPHTIAGEPDSRSSSSIASTVEISSDLVSLTSDPTSSFDSSSSLNSDSSSSPFSDESDISASSSFSTLVAPSFSLSSSSSLSLTYPHYVNSTTYHASESESSSVASPSMASESANDDTHTLSESTDTTSSIGTDSSTVTFCRRDNGDGCIVTGMPSSSIDSEQTSDVTTTSSFVASSTPTSAEQSITDNPNIDSSQTSASSSTKSSVSVSDTVVNSISLSETSTLSSDDSTSSDTSISSTTNSDTGNINAGSSHTSTASIKESSIQKTGVMLSSSYLSTKLSSTSDITTELITTELITTELTTIEDNEPNTFTSTPSSHSEIFSSDNSVLSKQVDRESTIKTSPTTDVTTVSSLSVHSTEASTATLGENSFSNVASTPSNIATSLRSTSSSSNHATESSGTVKSEASAEAIPSPPTSTDNRLSYSTEEAKGITYANSGSTNNLITESQVAAPTDSTSVLIENPVVTSTFDDNSSAAVDQPSKTKSIEESIMNPDSTNETNNGFIATLSQAQVPNSLIHSESISTTMAKTTDASINGDSAASNSQPTTLIQQVATSSYNQPLITTYAGSSS
modifications: left off: GST, N-terminal, kept
adhesion to collagen type IV (in words) [1]: greater adherence to collagen type IV as compared to GST-Als5-SS | aggregation and precipitation on concentrating (in words) [2]: aggregating and precipitating out; also recorded: tended to aggregate and precipitate out of solution | effect of longer deglycosylation on adhesion (in words) [3]: did not further reduce the adhesion
